Consider 1 substance from publication PMC5498717.

What is called stoichiometry N is a count of units in the complex or per binding partner.

This assay deals with GST. Briefly: cross-linking; BS3 0.25 mM, 15 min at RT in PBS with 1 mM DTT, proteins mixed about 1:1; SDS-PAGE, anti-His and anti-GST Western blots. (In general: In western blotting, separated proteins are transferred to a membrane and probed.)

Chain of GST (natural protein) (P08515 2-218): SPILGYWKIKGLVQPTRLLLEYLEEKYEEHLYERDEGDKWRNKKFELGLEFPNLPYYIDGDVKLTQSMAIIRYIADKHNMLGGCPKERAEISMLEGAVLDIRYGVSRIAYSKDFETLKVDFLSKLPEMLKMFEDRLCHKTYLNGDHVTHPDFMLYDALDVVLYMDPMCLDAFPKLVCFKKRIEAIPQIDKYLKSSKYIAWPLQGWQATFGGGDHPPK

GST (natural protein) displayed a stoichiometry N of 2.
